Measurements: US20110130348

Legend:
[1] = target: HP1 with LAP2 fused to its C-terminus (LAP2-C)
[2] = target: T1, LAP1 (rationally designed Lp1A acceptor peptide)
T1 chain: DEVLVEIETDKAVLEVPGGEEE

[3] = target: LAP2-HP1 fusion protein (LAP2 at the N-terminus of HP1)
[4] = target: T2, synthetic LAP2 peptide (Lp1A acceptor peptide 2)
T2 chain: GFEIDKVWYDLDA

B1: Escherichia coli lipoic acid ligase (Lp1A) (protein)
chain: MSTLRLLISDSYDPWFNLAVEECIFRQMPATQRVLFLWRNADTVVIGRAQNPWKECNTRRMEEDNVRLARRSSGGGAVFHDLGNTCFTFMAGKPEYDKTISTSIVLNALNALGVSAEASGRNDLVVKTVEGDRKVSGSAYRETKDRGFHHGTLLLNADLSRLANYLNPDKKKLAAKGITSVRSRVTNLTELLPGITHEQVCEAITEAFFAHYGERVEAEIISPNKTPDLPNFAETFARQSSWEWNFGQAPAFSHLLDERFTWGGVELHFDVEKGHITRAQVFTDSLNPAPLEALAGRLQGCLYRADMLQQECEALLVDFPEQEKELRELSAWMAGAVR
**Q.** B1 was tested. Which “percent conversion to lipoylated product (HPLC, 50 nM Lp1A, 1 h)” value [1] did it give?
**A.** When fused to the C- rather than N-terminus of HP1, the activity of LAP2 decreased somewhat, but was still higher than all other LAP sequences at the N-terminus

**Q.** And the “Km (estimate from HPLC measurements)” value [2]?
**A.** the Km for LAP1 is estimated to be >200 µM

**Q.** What about the “percent conversion to lipoylated product (HPLC, 50 nM Lp1A, 1 h)” value [3] of the same protein?
**A.** As in the cellular assays, LAP2 is the best sequence

**Q.** What about the “Km of Lp1A-catalyzed lipoylation (HPLC, Michaelis-Menten)” value [4] of the same protein?
**A.** 13.32 ± 1.78 µM

**Q.** And the “catalytic efficiency (kcat/Km) for lipoic acid ligation” value [4]?
**A.** The catalytic efficiency (kcat/Km) 0.99 µM^-1 min^-1)

**Q.** And the “kcat of Lp1A-catalyzed lipoylation (HPLC, Michaelis-Menten)” value [4]?
**A.** 0.22 ± 0.01 s⁻¹
